From patent US12458688B2, “Epitopes” (Scancell Limited, priority 2018, dated 2025) come the findings set out here.

Where no end group is shown, it is not given here. [ ]: non-standard residue; d: D form. hCit = NC(=O)NCCCC[C@H](N)C(=O)O

The target of this assay is T1, HLA-DP4 (Homo sapiens, UniProt P04440+P20036).
T1 sequence (P20036 29-260): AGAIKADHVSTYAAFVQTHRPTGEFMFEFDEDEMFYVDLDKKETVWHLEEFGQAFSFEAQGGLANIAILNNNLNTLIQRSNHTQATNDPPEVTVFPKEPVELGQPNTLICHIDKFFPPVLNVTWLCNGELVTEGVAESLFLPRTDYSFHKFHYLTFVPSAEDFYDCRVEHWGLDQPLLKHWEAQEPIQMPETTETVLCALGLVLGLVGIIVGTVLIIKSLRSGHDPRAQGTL
T1 sequence (P04440 30-258): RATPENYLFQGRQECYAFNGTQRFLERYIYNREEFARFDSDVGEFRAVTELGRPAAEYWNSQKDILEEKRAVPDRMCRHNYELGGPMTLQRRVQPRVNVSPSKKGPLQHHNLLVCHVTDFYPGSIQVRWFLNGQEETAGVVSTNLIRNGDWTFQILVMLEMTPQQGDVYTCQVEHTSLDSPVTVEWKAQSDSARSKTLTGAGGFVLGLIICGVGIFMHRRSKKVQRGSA
The assay can be described thus: DP4 competition assay with biotinylated Hep B peptide. Particulars: inhibition of biotinylated Hep B binding to HLA-DP4, 5 fold excess test peptide, equal amount for unlabelled Hep B. As to the method: 2×T175 gave 2.5×10^7 B16 HHDII/DP4 (B16F1 β2M H2Ab1 dKO A35 HHDII/DP4 H7/2E9/F9 p14) cells. This was enough for 5 preps using the following protocol with Mem-PER™ Plus Membrane Protein Extraction Kit (thermo-scientific cat #89842).
5×10^6 cells were resuspended in the growth media by scraping the cells off the surface of the plate with a cell scraper and then centrifuged at 300 g for 5 mins. The cell pellet was washed with 3 ml of Cell Wash Solution and centrifuged at 300 g for 5 mins. The supernatant was removed and discarded. The cells were resuspended in 1.5 ml of Cell Wash Solution and transfer to a 2 ml centrifuge tube and centrifuged at 300 g for 5 mins. The supernatant was discarded. 0.75 ml of permeabilization buffer was added to the cell pellet and vortexed briefly to obtain a homogeneous cell suspension and incubated for 10 mins at 4° C. with constant mixing. The permeabilized cells were centrifuge for 15 mins at 16,000g before carefully removing the supernatant containing cytosolic proteins and transfering to a new tube. 0.5 ml of solubilization buffer was added to the pellet and resuspend prior to incubating at 4° C. for 30 minutes with constant mixing prior to centrifugation at 16,000g for 15 mins at 4° C. The supernatant containing solubilized membrane and membrane-associated proteins was transfered to a new tube. Aliquots were frozen at −80° C. for future use. 12.5 μl Halt™ Protease and Phosphatase Inhibitor Cocktail, EDTA-free (100X) thermo-scientific (Catalog number 78445) was added prior to freezing.
High binding plates were coated with streptavidin (Sigma S4762 at 1 mg/ml) 1/500 in PBS and incubated overnight at 4° C. The plates were blocked with 1% BSA in PBS for 4 hrs at room temp and washed 3×PBS/0.5% Tweenx. 450 μl of cell prep lysate (B16F1 B16 HHDII/DP4 H7/2E9/F9) was mixed with 50 μg test peptide (see below) or 10 μg of unlabelled Hep B peptide for 30 mins. 10 μg biotinylated Hep B peptide was added & incubated for 4 hrs at 37° C.:
Lysate/peptide mix was added to the plates at 100 μl/well and incubated for 4 hrs at room temperature. Plates were washed 3× with PBS/0.5% Tween. 100 μl per well of Leinco anti-Human HLA-DP4 clone B7/21 #H260 1 mg/ml at 1/500 dilution in 1% BSA/PBS was added and incubated for 1 hr at room temperature prior to washing 3× PBS/0.5% Tween. Goat anti-mouse lgG3-HRP at 0.5 mg/ml 1/500 100 μl per well (Invitrogen #M32607) diluted in 1% BSA/PBS) was added for 1 hr at room temperature prior to washing and adding 150 μl of TMB substrate to each well. The reaction was stopped with 50 μl of 2N H2SO4 and plates read plate at 450 nm.
To ensure that the biotinylation of Hep B had not interfered with its binding, HLA-DP4 was incubated with equal amounts of biotinylated and unlabelled Hep B peptide. Unlabelled peptide competed equally reducing binding by 47% (FIG. 53b).
The biotinylated HepB peptide was then incubated with a 5 fold excess of the unlabelled homocitrulline peptides. All peptides inhibited the binding of biotinylated Hep B to HLA-DP4 but to varying levels (FIG. 53c-e).

“EIN-hcit-RTEMENEFVLI-hcit-hcit-DVDE (EIN[hCit]RTEMENEFVLI[hCit][hCit]DVDE) [Cyk8 182-202 Hcit]”: the “% inhibition” value worked out at 61%.

In the case of “HACTQ-hcit-FSH(N)EEIAMATVTA (HACTQ[hCit]FSHNEEIAMATVTA; not fully specified; printed as HACTQ-hcit-FSH(N)EEIAMATVTA) [Aldolase A 238-256 Hcit]”, the “% inhibition” value is given as 73%. As to “IGGVILFHETLYQ-hcit-ADDGRP (IGGVILFHETLYQ[hCit]ADDGRP) [Aldolase A 74-93 Hcit]”, the “% inhibition” value was found to be 69%. The same measure, in the same setting: as for “KFASFID-Hcit-VRFLEQQN-Hcit-MLE (KFASFID[hCit]VRFLEQQN[hCit]MLE) [Cyk8 101-120 Hcit]”, the figure is 71%; as for “LEQQN-hcit-MLET-hcit-WSLLQQQ-hcit-T (LEQQN[hCit]MLET[hCit]WSLLQQQ[hCit]T) [Cyk8 112-131 Hcit]”, 64%; as for “LREYQELMNV-hcit-LALDIEI (LREYQELMNV[hCit]LALDIEI) [Cyk8 371-388 Hcit]”, 72%. On the same count and under the same terms, the result for “NYID-Hcit-VRFLEQQN-Hcit-ILLAEL (NYID[hCit]VRFLEQQN[hCit]ILLAEL) [Vimentin 116-135 Hcit]” reads 44%; that for “hcit-DGADFA-hcit-WRCVL-hcit-IGEH ([hCit]DGADFA[hCit]WRCVL[hCit]IGEH) [Aldolase A 140-157 Hcit]”, 76%. With “hcit-LALDIEIATYR-hcit-LLEGEE ([hCit]LALDIEIATYR[hCit]LLEGEE) [Cyk8 381-399 Hcit]”, the “% inhibition” value (listed as Cyk8 281-399 Hcit) is on record as 60%.
